The nature of the series: soluble on expression in E. coli; label from the status in PepcDB or PDB records.
As for “FEHVLVFAPTGSGKTRSIGIPNLFNYPYSVVCNDVKLTLFRTTSGYRERVLGHRCFCWAPADENRITHCYNPLSLISEDKIQRLTDIQRIAHILMPDNKKSDPIWQQASRKLFKVAVLYLLDTPERPTTLGEINRLVKQAGFDDWLASVLEETNHLDPEFYRNGYSYLNNHEKTRSSILETFSGYFELFDDPTIDAATARSDFDLRQLRREKITIYIGFTDDDMERLSPLLTLFWQQLISVMIKNIPDPVDEPYPLLCLIDEFSSLGRIERLRRSLKLLREYRVRCVLIMQYIAQTYEQYTHDEAKAFTNIKTKIAFATEDIFDAEYVSKLLGTRTVKVSAGSTSTQTQGYSESKSYNYQAIPLLRPDEVMRLPEDQTLIMRTGHAPVKAEQMVWY”, the “soluble on expression in E. coli” value is “not soluble”.
With “MDNGDWGYMMTDPVTLNVGGHLYTTSLTTLTRYPDSMLGAMFGGDFPTARDPQGNYFIDRDGPLFRYVLNFLRTSELTLPLDFKEFDLLRKEADFYQIEPLIQCLNDPKPLYPMDTFEEVVELSSTRKLSKYSNPVAVIITQLTITTKVHSLLEGISNYFTKWNKHMMDTRDCQVSFTFGPCDYHQEVSLRVHLMEYITKQGFTIRNTRVHHMSERANENTVEHNWTFCRLARKTDD”, the “soluble on expression in E. coli” value is on record as “not soluble”.
The same measure for “GCDLERYPLTDLSEETFWNSESNAELALTSLYRGSLTDGVEYNPSDWWSYHGMIMMEHLSDNAFDRRGENNPFFKISSGNLTADNAFIKRYWETSYKRIGYCNRFLVGIQNSSESEKKTRMIAEARFLRATQYFYLASYFKNVPLVENVLTGEEANNVTKTSQADILKWCVTEFTAAAADLPRFSAIPAGEAGRACKQAALAFLGRTCMLQKDWKSGAKAFHDIMELGDNAINANYQELFYPSTGTSNKENIFYIQYLENYLGTGLPQHALSAKDGGWSLVNPAADLYESYEFKDGTPFSYDDPRYDPSNLGKDRDPRLDYTIYYNGAIFMGTEYKMSPDYSAAKKEKLDYTSEASRTGFMMRKYFEESTPINDVQSANGLTPVIRYAEVLLGYLECLVEDNQTITQGILDETINAVRGRASVNMPPVTEVTPAKLREIVRHERRIELAMEGIRYWDIMRWGIAHEVLSQKIWGAPYPGSTQYATTTKEVDPTGNYRWYVGKRAFRNPTDYTWPIPQSEQNINPNLRD”: “soluble”.
“MAHHHHHHMPTSSWRAEHLLIKHSGSRNPVSRRTGQPTTISYEEAVTELQKWCQSINDGKVTFEEAARQRSDCSSYARGGDLGVFGPGEMMKPFEDATKSLEVGQVSGIVVTDSGVHIIKRIA”: the “soluble on expression in E. coli” value was “soluble”.
For “MLSVDYENFDLISYLYNLVRQIPDGMVSTYGDLAEALGDPVAARSVGFMLSINKEPDYIPCYKVVPHDGSVGNYTHPLGSAEKMRRLIRDGITITNGHISNFEKVRFREFKTDYPLRKLRELQFKIGRLYDDRNDYSLDTIAAFDVSYKETRGYASKVVYNKGKIGAYVYSSDSMFPYIPGYLAFKEFKFIRALYDNETMILIDGNGILHPRFAGLATHAGVSLKTASIGIAKHLINCTVKGSDLLISGVVAGKMIGHHTIVSPGNRINVEEAGRLIEQREGKEMRSLLRLAHNLTRLHIETNGNIARYDFSTRNTAIQSSLEHHHHHH”, the “soluble on expression in E. coli” value is given as “not soluble”.
The result for “MGSSHHHHHHSQDPNSAAPAAEAPLSHVQQALAELAKPKDDPTRKHVCVQVAPAVRVAIAETLGLAPGATTPKQLAEGLRRLGFDEVFDTLFGADLTIMEEGSELLHRLTEHLEAHPHSDEPLPMFTSCCPGWIAMLEKSYPDLIPYVSSCKSPQMMLAAMVKSYLAEKKGIAPKDMVMVSIMPCTRKQSEADRDWFCVDADPTLRQLDHVITTVELGNIFKERGINLAELPEGEWDNPMGVGSGAGVLFGTTGGVMEAALRTAYELFTGTPLPRLSLSEVRGMDGIKETNITMVPAPGSKFEELLKHRAAARAEAAAHGTPGPLAWDGGAGFTSEDGRGGITLRVAVANGLGNAKKLITKMQAGEAKYDFVEIMACPAGCVGGGGQPRSTDKAITQKRQAALYNLDEKSTLRRSHENPSIRELYDTYLGEPLGHKAHELLHTHYVAGGVEEKDEKK” reads “soluble”; that for “MFYAQFVLAKKGPLAKVWLAAHWEKKLTKAQIFETDVPQAIEEVIRPKVKMALRTVGHLLLGIVRIYSKKTRYLLADTNEAYQKMKINFRNGFSFEVDIPENAEIEEDFSNFIDKYNITVPEFHDADYNEQLIMANVSRREDITMKETVNFNVEFNIDADFDGFGDEGESWQLDHLYGSVEPLSLRPTPQPESLMEVERDRDVAANGTEISRIDADSVIFSEGPTRPNLIFDNQEGGNFMPEMNLKVENQTLENDGGVGPADMFSSMIHPVREHAVADVQNDDGMDFDYQPFEPENVEPSRPQSPESFALEPLDVEHMEGRKKRQRKARKLIVDAETMISNDAFREQQEDFSDTMRVVEMAPPTRKMFNLCVSGDLQHLSREPGCKMFNRELLQRYRRCLVTREFDLNYTMQELSDSSSFTPSMEAQAEPWEDLNLNEDIQEDIQAQGPAVDEFFNDVRMDDDDDRQPAQEMDFGDNFDFPQEVEHQECAPIPIQSGFAGENKENEDAEDWSDPFGSSNSSRRGQLEAYGFGNTSTYKEDDGKWAKRAKHILKKVSADIETSGQADFSSVTATAKNRKQAAEQFYSLLTLAKSQAISVDQSEPYGEIVIRPGANFKEACPLSSPKPMGLGNTMENSTMRTPMRPV”, “not soluble”.
The same measure for “MNILRNIILFGWMAIACTAFAQDRNADKVERPNTKKINFGIKAGFNSSMFMVSELKIKDVTIDEVQNNYKIGYFGAIFMRFNIKKHFIQPEASYNVSKGEITFDKLGSQHPAIEPDYASVQSVLHSIDFPILYGYNVVKKGPYGMSIFAGPKLRYLWGKQNEITFTNFDQKGIHEKLYPLNVSVVIGVGVNISRIFFDFRYEQGIGNISKSIVYDNINSDGSTGVSPIIFRRRDSALSFSFGFIL”: “not soluble”; for “MSLRILVNGLLPLDSGKTTFSLSIIRLFNQVGIRLFPFKPIAGHNAWYSFNTLIRSEELGILVGNDALKYYDETKYDIRRINPFAVLFVPIDLEKISYNVSLYNMIMEYGFPYLIRLSDCINGTDQYFVNSSADIYVPKSMLKFTRNLALKFNAKLYDKMREIIDASPQLVDNCTIDVFRNYENVIIESYNDSASPTYNSTNVDYVFTVSPTKAFLIKGQEFKKALSLFSIPPWNVRVSTLMKYLKIGKSFEIDVGERVAKDEILDILLKSEGHHHHHH”: “not soluble”; for “VIDSMTSTDLLPEEPKWVPLSSESIQQYVDEGKVVFVDVTADWCVTCKANKIGVLLQEPVYSELNSANVVPMQGDWTVPSEKITSYLQEHGRFGVPFNVVYGPSAPNGIELPVILNEKVVMDAIKKAGNK”: “soluble”.
The same measure for “MQAPVVTETCQTNEEGEQLVLRLRAPVERPRVTWGAGVIDNEHMGRLKSNCCCIYTPPRVWDDPSTWEPEEHETEHCRGHTLPEKKQKPQGGHGSDKDEDKGNCGCDHC”: “not soluble”; for “MAHHHHHHEAVVTPWSVEGDVNYDKLIKDFGSHAIDEALLERIERVLGKKPHHFLRRGIFFSHRDLNLLLDVYESGQPFYLYTGRGPSSESMHMGHLIPFMFTKWLQDSFRVPLVIQMTDDEKFYFRNIPMEQVEAMTTENIKDIIAMGFDPELTFIFRDFDYMGCMYRTVAKIERAFTASQVRGCFGFAMEDNCGRWMFPAIQAAPSFSAAFPHIFPPSMGNVFCLIPQAIDQDPYFRLTRDIAPRLGYLKPAVIHSKFFPGLSGPKGKMSSSSGTAVLLTDTEKMVKDKINKHAFSGGGATKQEHFLLGANVEVDVPIQWLSFFLEDDEELARVKKEYMLGRIMTGEVKKLLINTITAITKTHQEKRKLVTDEDVQLFTSTRIMGPAKKAATQ”: “soluble”; for “MNRGLDPMHVGNARYVKNDDLPKTVPVFPLPGALLLPEGHLPLNIFEPRYLAMIDTALASHRLIGMVQPALHVIEAGIEGGPLSAVGCLGRITSFSETGDGRYVISLTGVCRFRLLEEVAGSEPYRSFRHAPFGADLSGEYDEEAVDRENLLRVFRAFLDANQLEADWESVERAGNRVLVNSLSMMSPFGPAEKQALLEAPDLKTRAETLIAITEIVLAQGSGEGGTVLQLEHHHHHH”: “not soluble”.
As to “PYKASKSRGLVVSNIYSRYDINELESGLMRVSQNKYSPDNYLFQEGQYLDKETLEKWLDRKSEKNPNGLNPESNGDGKDRKPIYLAHILEQDYLKQTDKDTVALGGISIALAMNSVDYYQKEQYGDTFEQEISDSDLLAQGKEMSGTVLNRIRQTKGLENVPVTIAIYKQGPRDAVAPGNFLTYATANGDSLSSWKDVEEKNYVLPSTESAKDHKTDNDNFLNFKKAIEDYYPNFTGVVGRARYEDGQLAELSIDIPLQFYGQAEIIGFTQYVTDLVGQHIPKTADLQVNISTSDGPAALITRKANEDAATA”, the “soluble on expression in E. coli” value was “not soluble”.
As to “GGLTEICRKPVSPGCISSVSDWLISIGLPMYAGTLSTAGFSTLSQVPSLSHTCLQEAGITEERHIRKLLSAARLFKLPPGPEAM”, the “soluble on expression in E. coli” value was “soluble”.
The same measure for “MGKKNEKIVEEAEKVEAETMEVDEQPQETPQVDDEEDLNVPSKKKMEILDPKSFEQDPSNLTLIMYEEDHTIGNSIKHILSRMDEVEFCGYNVPHPLEDKILFRVQTKDGINALEVLAKAFESVEQIFSTIRGKFEESYEQSQS”: “soluble”.
On to “MAHHHHHHMARDYDAGYKLLFAMPEMMRDLLREFIRSDWLRALDYSTLERVSGNYVADNMRQRASDMVWRVDAGDPWGHLYVLLEFQSTIDRYMAPRMAAYTALLHQELVRAGQVLPDRRVPAALSIVLYNGDTPWSACTNIRDVVVSLPNGLAACQLHQQHTLLDINRLSEAQLPDDNLAALLFRIERAADYDTVVSLMIECRMRLRHEPKLKLAFAKTFAALLCGQRGSVLTPDQVFQLMEVDMQVVGANLQRFTHKLREEARQEGEARMLQKLLAERFGSLHASVVQRIEIATPEELERWGIQLLRAEVIEDVFRA”, for which the “soluble on expression in E. coli” value was “soluble”.
The same measure for “QVQSVEVMRDSYGVPHVFADSHYGLYYGYGYAVAQDRLFQMDMARRSFVGTTAAVLGPGEQDAYVKYDMQVRQNFTPASIQRQIAALSKDERDIFRGYADGYNAYLEQVRRRPELLPKEYVDFDFQPEPLTDFDVVMIWVGSMANRFSDTNLEVTALAMRQSLEKQHGPERGRALFDELLWINDTTAPTTVPAPAA”: “soluble”.
With “MSVLYIQIRRNQITVRDLESKREVSGDAAFSNQRLLIANFFVAEKVLQDLVLQLHPRSTWHSFLPAKRMDIVVSALEMNEGGLSQVEERILHEVVAGATLMKYRQFHIHAQSAVLSDSAVMAMLKQK”, the “soluble on expression in E. coli” value was “soluble”.
Consider “MSLDKSLLKIVTNETGVATTTVEKVIALLDEGNTVPFIARYRKEVTGGLDEVKIKSIQDKWNYVVNLSERKQEVLRIIEEQGKLTKELENDIKAATQLQRVEDLYRPYKQKRRTRATIAKEKGLEPLALLVWSQEKDIDLQEEAKQYFSEEHELHTTEDVLQGINDIIAEWISDDAKYRDYIRDITFKRGLIQSEVKKQEDDEKGIYEMYYSYSEAVRSLVSHRILALNRGEKEKILKVQIEPPVEQITSYLEKQTIKNNSNEQITNSLKAAVEDSYKRLIQPSIEREIRNELTEKAEAQAIEVFSVNLKNLLLQPPLKGKVVLSVDPAFRTGCKLAVVDETGKVHHIGVIYPTAPKNDVKGAEKVVLQLIEQFSVELIAIGNGTASRETEQFISDVIRNKELDLPYIIVNEAGASVYSASPLAREEFPDLQVEERSAVSIARRVQDPLAELVKIDPKSIGVGQYQHDVSQKELSGSLSFVVETAVNQVGVNVNTASSSLLQYVSGLSKTVANNMVKQRNEEGKFTNRKQLKKIPRLGAKTYEQAIGFLRIPDGDTILDRTPIHPESYDQTKNLLQMLGYTENDIGSEKLQQDLNNIDKKATAEKLEIGLPTLEDIMEALGKPGRDPRDDFPQPLLKKNVMNMEDLKSGMELQGTVRNVVDFGVFVDIGVKQDGLVHISKMSKQFVKHPMDIASVGDVVTVWVDQVDVQKGRIALTMVGNDEGHHHHHH”, for which the “soluble on expression in E. coli” value is given as “soluble”.

The values above are taken from the DeepSol protein solubility set.
